Experimental data published in the RNAGym collection of RNA variant scans (doi:10.1073/pnas.2313332121).

B1: TPR t1 (parent)
chain: GACCAAUCUGCCCUCAGAGCUCGAGAACAUCUUCGGAUGCAGAGGAGGCAGGCUUCGGUGGCGCGAUAGCGCCAACGUCCUCAACCUCCAAUGCAUCCCACCACAUGAUGAUGCCUGAAGAGCCUUGGUUUUUUG

Variants of: B1
Experiment: polymerase ribozyme fitness, log enrichment relative to wild type (log ratio); higher = more active; in vitro selection for triplet polymerase activity
Procedure, shortened: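 Each subunit of a heterodimeric triplet polymerase ribozyme was mutagenized into a library by PCR, transcribed, and subjected to one round of in vitro selection, run in triplicate. Libraries were annealed with a biotinylated primer, the partner subunit and triplets, incubated frozen at −7 °C, and extended constructs were gel-excised, captured on streptavidin beads and recovered by RT-PCR. Input and output libraries were sequenced on Illumina, keeping genotypes with ≥10 input reads and ≥1 read per output. Fitness is log base 2 of genotype enrichment divided by wild-type enrichment, from inverse-variance-weighted replicate averages.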

Variant | polymerase ribozyme fitness (log ratio)
U14A C72G | -2.35
U14A C73A A74C G120A | -0.495
U14A C79G A83U | -5.11
U14A C82A C98G G110C | -7.59
U14A C114U | -5.22
U14A C123U G127A | -0.509
U14A G17A C20G C115U | -5.9
U14A G19C A83C C89A A111C C114G | -5.57
U14A G36A | -3.62
U14A G44C G61U C85G U96C G113U | -6.21
U14A G44U G117U A118U | -4.78
U14A G48U | -2.9
U14A G61A | -1.88
U14A G63C C82U U112G | -1.65
U14A G71A U130A | -3.52
U14A G71C | -3.09
U14A U81A | -4.19
U14C A18G | -4.78
U14C A37U | -1.93
U14C A46U A74G | -1.32
U14C A46U G60C U116C G117A | -5.66
U14C C15A A46C | -5.53
U14C C40A U87C | -3.01
U14C C49A C56U U92G C97U A111U | -6.85

Variant | polymerase ribozyme fitness (log ratio)
U14C C49U A50U U55A | -6.51
U14C G17C C20A A24U A43C C85U A111G | -6.11
U14C G36C U133A | -4.29
U14C G36U A41U | -5.76
U14C G42C U92G | -4.23
U14C G61A G110C | -5.14
U14C G61U A75C A105C | -3.69
U14C G77A | -2.6
U14C G93A G120C | -1.52
U14C G113A | -3.18
U14C U21C G61A C101U | -3.37
U14C U54G | -1.76
U14C U54G G93C C104U U116G | -3.88
U14C U112G G113U | -5.07
U14C U116G G120A U129A | -2.37
U14G A18U G61A C115A U129A U132A | -3.2
U14G A24G G61A U78C | -4.74
U14G A27C C85A U109A C124A | -6.27
U14G A43G G52A C53A G77C A100U | -5.52
U14G A46U A74G C101A | -3.18
U14G A50C C101A | -3.99
U14G A50G A84G | -3.03
U14G A50U G61C C86A | -4.54
U14G A68G U112G | -5.15

Variant | polymerase ribozyme fitness (log ratio)
U14G A74U | -2.04
U14G A90C | -3.4
U14G C40A G71U A121G G127U | 0.306
U14G C53U U87A | -2.67
U14G C70G U116G | -5.13
U14G C72A | -2.6
U14G C72G | -2.44
U14G C72U | -1.52
U14G C73A A90U | -3.66
U14G C73G C82A | -3.08
U14G C82U G93C | -2.71
U14G C123U | -0.161
U14G G44A C72U C104U | -2.42
U14G G44C G71U U78A | -3.39
U14G G45C C94A C123U | -3.17
U14G G45C G110U | -3.81
U14G G47C C70U C85G G117A | -7.02
U14G G47C C85G G117A | -5.3
U14G G48A A50G C72A G120C A121C | -1.94
U14G G48U C94A C101U G120C | -2.13
U14G G60C C70U | -3.06
U14G G61U | -1.11
U14G G61U C89A C99G G113C C115U | -6.86
U14G G71A | -1.59

Variant | polymerase ribozyme fitness (log ratio)
U14G G113C | -4.24
U14G G113U | -5.7
U14G G117A | -2.92
U14G G128A | -3.77
U14G U21C | -2.74
U14G U38G | -3.56
U14G U55C C70A | -3.8
U14G U87G G127C | -4.35
C15A A24G | -5.73
C15A A27C U55G | -5.9
C15A A29U G69A G120C | -1.85
C15A A37G G45U C72A G93U U112C G122C C123G U125A | -3.59
C15A A41C C72A | -2.94
C15A A41U A43U G61A G113A G122A | -5.83
C15A A43U C49U A91U | -3.45
C15A A46C | -3.02
C15A A66G | -2.15
C15A A74G G113A | -4.02
C15A A74G U78G C79U G110U | -3.12
C15A A84G C94U | -2.76
C15A A84U | -1.41
C15A A90G G93A A103U G120U | -6.55
C15A C20U C73A G93A | -3.83
C15A C20U G48A A91U | -4.59

Variant | polymerase ribozyme fitness (log ratio)
C15A C40A C56G | -6.31
C15A C40U C115U U131A | -1.85
C15A C40U U87C G93C | -3.02
C15A C49A C86A A95U G110A C123A | -5.76
C15A C49G C98U | -3.16
C15A C49U G61A | -1.73
C15A C53A C72G A103C G113A G117A | -6.79
C15A C53A G77A C101G G120A C124A | -1.12
C15A C64G C70A U92C G110C C115U G127U | -7.47
C15A C70G C99A G117A C124A G128A | -6.67
C15A C70U C114U | -5.04
C15A C72G | -2.3
C15A C73U | -2.31
C15A C76U A83U C86A | -3.37
C15A C80U A84U | -2.49
C15A C101G C124G | 0.0121
C15A C104U G110A | -2.85
C15A C114U | -4.61
C15A G35C U87A | -5.96
C15A G36A A50C G65A G69U | -7.38
C15A G39A C53A U125A | -3.62
C15A G39A G69A U87G U112G | -4.24
C15A G44U | -2.85
C15A G45A C89G G93C | -4.59

Variant | polymerase ribozyme fitness (log ratio)
C15A G52U C94G | -3.9
C15A G57A C94U | -2.78
C15A G60C U116C | -3.39
C15A G60U U131A | -1.3
C15A G69U G77U G122A C123A | -1.41
C15A G71A A91G U112A G113C | -5.47
C15A G71U | -2.58
C15A G71U A90U U106C A118U | -4.15
C15A G117A | -2.72
C15A G127A | -3.63
C15A U32C | -1.58
C15A U54A C56G | -3.37
C15A U92A U132A | -4.82
C15A U106A | -1.94
C15A U106C | -2.44
C15A U116A | -4.69
C15A U133C | -1.06
C15G A16G C49U C56U G117U | -1.99
C15G A24G C89G C124G | -6.51
C15G A26U G44C G117C | -2.36
C15G A27G | -4.15
C15G A29G C88G U129A | -3.95
C15G A37G A66U | -5.5
C15G A50C | -2.38

Variant | polymerase ribozyme fitness (log ratio)
C15G A84U | -2.56
C15G A100U | -4.44
C15G C20U C73U U78G A111G | -6.71
C15G C22A G52C A119G | -5.02
C15G C34A C70G A121C | -6.55
C15G C40A | -3.83
C15G C40G C56A | -3.88
C15G C40U | -2.91
C15G C49G C89U C115G | -4.39
C15G C49G U106C C124U | -2.11
C15G C56G G57C C72G C104U U131C | -4.86
C15G C62G | -5
C15G C70G | -3.8
C15G C72U A100U | -3.69
C15G C73A C88G | -3.31
C15G C73U A75G G107U U109A C124G | -5.07
C15G C79G | -4.93
C15G C86U G110A A118U | -3.91
C15G C86U U116G | -2.95
C15G C89U A90G | -2.42
C15G C124U | -0.148
C15G G17C | -4.24
C15G G17U C40U | -4.85
